From US20020150558A1 (CENTRE NATIONAL DE LA RECHERCHE SCIENTIFIQUE CNRS, published 2002)

What was measured:
[1] = target: class I HLA molecules (MHC-I) at the cell surface (human); assay: cell-based or functional assay
[2] = target: T1, Ad5Luc3 (adenovirus serotype 5 (Ad5), UniProt P11818 1-581); assay: cell-based or functional assay
T1 sequence: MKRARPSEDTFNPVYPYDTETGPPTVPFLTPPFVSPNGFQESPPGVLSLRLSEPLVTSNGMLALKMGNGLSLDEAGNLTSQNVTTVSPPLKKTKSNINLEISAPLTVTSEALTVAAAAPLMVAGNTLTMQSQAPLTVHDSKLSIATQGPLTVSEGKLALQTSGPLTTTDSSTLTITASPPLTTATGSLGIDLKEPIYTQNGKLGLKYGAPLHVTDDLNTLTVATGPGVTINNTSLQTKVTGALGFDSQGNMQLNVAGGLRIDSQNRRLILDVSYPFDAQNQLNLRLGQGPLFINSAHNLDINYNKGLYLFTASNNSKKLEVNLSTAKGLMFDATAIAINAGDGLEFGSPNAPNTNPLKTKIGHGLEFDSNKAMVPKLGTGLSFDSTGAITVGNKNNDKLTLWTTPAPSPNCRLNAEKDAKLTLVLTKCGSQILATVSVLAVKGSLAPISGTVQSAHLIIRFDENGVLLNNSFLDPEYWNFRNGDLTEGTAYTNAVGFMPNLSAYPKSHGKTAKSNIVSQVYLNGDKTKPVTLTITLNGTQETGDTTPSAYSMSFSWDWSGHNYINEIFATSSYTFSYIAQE

Molecule	luciferase activity 18 h post-infection, attachment at 0 C; Daudi HLA- cells against Daudi-HLA+ cells (orders of magnitude) [1]	fold decrease in luciferase activity (RLU) in HeLa cells; Ad5Luc3 preincubated with peptide, attachment at 0 C [2]
Ad5Luc3 (from UniProt P11818 1-581)	3 to 4	
RAIVGFRVQWLRRYFVNGSR [synthetic peptide MH20]		100 fold
